From US20250388666A1 (BRIGHAM AND WOMEN S HOSPITAL, published 2025)

Experiments:
[1] = target: T1, CEACAM6 on transfected HeLa cells (UniProt P40199 35-320, limits assumed); assay: flow cytometry, transfected HeLa
T1 construct: whole, on cells; also called C6
T1 sequence (looked up): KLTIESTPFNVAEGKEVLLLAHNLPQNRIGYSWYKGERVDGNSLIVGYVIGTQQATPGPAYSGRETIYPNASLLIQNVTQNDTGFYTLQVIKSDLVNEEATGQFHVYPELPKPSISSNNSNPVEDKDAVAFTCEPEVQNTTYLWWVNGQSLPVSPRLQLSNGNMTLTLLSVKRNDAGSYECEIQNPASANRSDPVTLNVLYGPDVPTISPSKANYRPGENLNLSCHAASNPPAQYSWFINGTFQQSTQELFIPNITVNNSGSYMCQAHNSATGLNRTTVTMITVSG
Method: (§1) Binding selectivity of the selected antibody variants was assessed by flow cytometry using HeLa cells transfected with vectors expressing CEACAM1, CEACAM5, and CEACAM6, respectively. The resulting cells were used for flow cytometry experiments and were cultured at 37° C., 5.0% CO₂ in Dulbecco's modified Eagle's medium supplemented with 10% fetal bovine serum, penicillin (100 U/ml) and dihydrostreptomycin ([…]). Cell lines were stained with the indicated antibodies followed by fluorochrome-conjugated monoclonal antibody specific for the indicated antibody isotypes such as human IgG4 or mouse IgG1 together with viable dye (DAPI). Data were acquired with a Cytoflex flow cytometer ([…]) and analyzed with FlowJo software (TreeStar, V7.6.5 for Windows).

[2] = target: T2, CEACAM1 on transfected HeLa cells (Homo sapiens (Human), UniProt P13688 35-526); assay: flow cytometry, transfected HeLa
T2 construct: also called C1
T2 sequence: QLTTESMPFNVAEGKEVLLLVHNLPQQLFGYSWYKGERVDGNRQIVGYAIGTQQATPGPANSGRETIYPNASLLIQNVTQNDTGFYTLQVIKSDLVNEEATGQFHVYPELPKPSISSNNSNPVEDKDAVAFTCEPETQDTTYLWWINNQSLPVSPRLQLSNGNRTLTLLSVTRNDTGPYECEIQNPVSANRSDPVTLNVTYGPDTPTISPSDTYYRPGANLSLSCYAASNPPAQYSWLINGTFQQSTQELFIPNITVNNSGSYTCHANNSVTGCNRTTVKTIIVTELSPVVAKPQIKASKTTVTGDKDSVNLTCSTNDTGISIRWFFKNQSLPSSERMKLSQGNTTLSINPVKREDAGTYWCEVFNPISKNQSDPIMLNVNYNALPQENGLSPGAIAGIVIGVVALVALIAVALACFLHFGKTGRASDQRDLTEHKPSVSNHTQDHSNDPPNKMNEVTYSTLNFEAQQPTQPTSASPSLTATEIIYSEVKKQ
Method: as §1

human GST-CEACAM1 = target: T3, human GST-CEACAM1 (human, UniProt P13688 35-141, limits assumed); assay: competition ELISA vs murine parent antibody
T3 construct: printed both as GST-CEACAM1 and CEACAM1-GST; also called human CEACAM1-GST protein; hCEACAM1-GST; not shown: GST tag
T3 sequence: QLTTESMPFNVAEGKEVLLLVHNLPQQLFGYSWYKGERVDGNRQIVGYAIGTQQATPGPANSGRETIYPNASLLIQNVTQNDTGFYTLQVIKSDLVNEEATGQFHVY
Method: The binding of the purified chimeric antibody to human CEACAM1 was assessed in a competition ELISA assay. Nunc Immuno MaxiSorp 96 well flat bottom microtitre plates were pre-coated with 1 μg/ml human GST-CEACAM1 in 1×PBS, overnight at 4° C. The following day the plates were blocked for 1 hour at room temperature with 2% BSA/PBS before washing 2× with PBS/0.05% Tween 20 pH 7.4.
The binding of the purified antibodies to human CEACAM1 were assessed in a competition ELISA assay as described above. The ability of each variant to compete against the murine parental antibody for binding to the GST-CEACAM1 was compared to that of the chimeric antibody (VH0/Vκ0), which was included on each plate.

[3] = target: T4, CEACAM1-HIS (Sino Biologics Inc.) (Homo sapiens (Human), UniProt P13688 35-428); assay: SPR single-cycle, IgG on Protein A
T4 construct: bought; not shown: His tag
T4 sequence: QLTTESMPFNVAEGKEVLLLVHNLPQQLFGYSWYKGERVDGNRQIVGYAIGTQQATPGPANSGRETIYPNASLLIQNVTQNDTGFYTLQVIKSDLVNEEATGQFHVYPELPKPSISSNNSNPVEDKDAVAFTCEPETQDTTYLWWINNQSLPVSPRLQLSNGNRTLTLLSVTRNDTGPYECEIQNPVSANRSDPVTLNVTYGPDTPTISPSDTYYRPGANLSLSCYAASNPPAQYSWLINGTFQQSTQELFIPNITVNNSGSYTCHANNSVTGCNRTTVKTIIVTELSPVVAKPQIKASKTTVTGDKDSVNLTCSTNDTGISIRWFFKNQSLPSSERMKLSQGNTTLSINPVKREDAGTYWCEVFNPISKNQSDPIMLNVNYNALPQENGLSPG
Method: As an alternative approach to assess the binding of the antibody combinations and the control antibodies to CEACAM1, a kinetic analysis was performed on a Biacore T200 running Biacore T200 Evaluation Software V2.0.1. All experiments were run at 25° C. with HBS-P+ running buffer (pH 7.4).
In order to assess the binding of all Composite Human Antibody™ variants, single cycle kinetic analysis was performed on the supernatants of all the transiently transfected HEK EBNA cells. Purified chimeric antibody and purified chimeric antibody spiked into HEK EBNA media were used as positive controls. Supernatants were diluted in HBS-P+ to a concentration of 1 μg/mL (as determined by an IgG quantitation ELISA). At the start of each cycle, antibodies were loaded onto Fc2, Fc3 and Fc4 of a Protein A chip and captured at a flow rate of 8 μL/min to give an RU of ˜100. The surface was then allowed to stabilize. Single cycle kinetic data was obtained at a flow rate of […] to minimize any potential mass transfer effects. Multiple repeats of the chimeric antibody were performed to check the stability of the surface and analyte over the kinetic cycles. The signal from the reference channel Fc1 (no antibody) was subtracted from that of Fc2, Fc3 and Fc4 to correct for differences in non-specific binding to a reference surface. A 5 point 2-fold dilution range from 3.125 to 50 nM CEACAM1 without regeneration between each concentration was used. The association phase for the 5 injections of increasing concentrations of CEACAM1 was monitored for 150 seconds and a single dissociation phase was measured for 150 seconds following the last injection of CEACAM1. Regeneration of the Protein A was conducted using 2 injections of 10 mM glycine-HCL pH 1.5 followed by a stabilization period of 500 seconds.
In the raw sensorgrams for the single cycle kinetics, the signal from each antibody blank run (no CEACAM1) was subtracted to correct for differences in surface stability.

[4] = target: T5, CEACAM3 (Sino Biological) (human, UniProt P40198 35-155, limits assumed); assay: binding ELISA on plate-coated CEACAM (0.5 µg/mL); antibody at 1.67, 0.062 and 0.0069 µg/mL; signal as % of parent IgG on CEACAM1 at 1.67 µg/mL on the same plate
T5 construct: also called hCEACAM3
T5 sequence (looked up): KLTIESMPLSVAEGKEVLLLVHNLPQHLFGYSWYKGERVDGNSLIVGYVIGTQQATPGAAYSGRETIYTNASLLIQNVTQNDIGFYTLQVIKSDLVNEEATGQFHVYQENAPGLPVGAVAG

[5] = target: T6, CEACAM6 (Sino Biological) (human, UniProt P40199 35-320); assay: as above
T6 construct: also called hCEACAM6
T6 sequence (looked up): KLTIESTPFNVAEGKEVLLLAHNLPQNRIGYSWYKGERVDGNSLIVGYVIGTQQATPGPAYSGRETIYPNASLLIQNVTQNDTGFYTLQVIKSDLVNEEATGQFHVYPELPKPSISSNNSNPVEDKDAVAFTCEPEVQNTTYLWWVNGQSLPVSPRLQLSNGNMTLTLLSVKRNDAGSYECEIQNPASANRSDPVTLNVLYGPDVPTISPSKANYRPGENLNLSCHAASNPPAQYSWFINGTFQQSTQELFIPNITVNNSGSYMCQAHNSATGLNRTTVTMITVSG

[6] = target: T7, CEACAM1 (Sino Biological) (human, UniProt P13688 35-428, limits assumed); assay: SPR single-cycle
T7 construct: may be the same as CEACAM1-HIS; also called hCEACAM1; biotinylated soluble CEACAM1
T7 sequence: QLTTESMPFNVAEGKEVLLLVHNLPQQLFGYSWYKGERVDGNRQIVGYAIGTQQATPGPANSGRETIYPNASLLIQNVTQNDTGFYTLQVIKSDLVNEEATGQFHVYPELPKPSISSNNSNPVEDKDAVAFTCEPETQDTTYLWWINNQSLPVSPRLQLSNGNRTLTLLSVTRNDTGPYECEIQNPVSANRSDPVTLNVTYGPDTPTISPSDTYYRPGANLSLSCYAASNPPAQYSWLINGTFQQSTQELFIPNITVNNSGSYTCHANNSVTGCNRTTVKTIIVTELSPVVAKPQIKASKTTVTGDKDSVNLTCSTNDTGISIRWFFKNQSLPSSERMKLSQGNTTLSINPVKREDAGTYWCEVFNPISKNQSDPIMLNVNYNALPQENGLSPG
In short: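 Humanized affinity-matured IgGs from crude supernatants captured on Protein A to ~100 RU, with CEACAM1 analyte injected at 25–100 nM (three-point, two-fold) in HBS-P+ without regeneration. 200 s association per injection, 300 s single dissociation; reference-channel and blank subtracted.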

[7] = target: T7, CEACAM1 (Sino Biological); assay: SPR multi-cycle, IgG on Protein A
Method: Multi-cycle kinetics analysis was performed on the twelve lead antibodies using a Biacore T200 instrument running Biacore T200 Evaluation Software V3.0.1 (Uppsala, Sweden) to establish an accurate affinity for CEACAM1. The purified antibodies were diluted to a concentration of […] in HBS-P+. At the start of each cycle, each antibody was captured on the Protein A surface to give an RL of ˜100 RU. Following capture, the surface was allowed to stabilize. Kinetic data was obtained using a flow rate of […] to minimize any potential mass transfer effects. For the kinetics analysis, CEACAM1 was used. Multiple repeats of the blank ([…]) and a repeat of a single concentration of the analyte were programmed into the kinetic run in order to check the stability of both the surface and analyte over the kinetic cycles. For kinetic analysis, a two-fold dilution range was selected from 200 to 3.125 nM CEACAM1. The association phase of CEACAM1 was monitored for 275 seconds and the dissociation phase was measured for 250 seconds. Regeneration of the Protein A surface was conducted using two injections of 10 mM glycine-HCL pH 1.5 at the end of each cycle.
The signal from the reference channel Fc1 was subtracted from that of Fc2, Fc3 and Fc4 to correct for differences in non-specific binding to a reference surface, and a global Rmax parameter was used in the 1-to-1 binding model. The relative KD was calculated by dividing the KD of the RSB02 Parent by that of the humanized and affinity matured variants on the same chip.

[8] = target: T7, CEACAM1 (Sino Biological); assay: single-point competition ELISA: crude periplasmic scFv extract mixed 1:1 with VH2 N56Q/Vk4 S27(f)A IgG (0.246 µg/mL) on plate-coated CEACAM1 (0.0625 µg/mL); remaining IgG detected with anti-human-HRP, absorbance 450 nm
Method: Nunc Immuno MaxiSorp 96 well flat bottom microtitre plates were coated with CEACAM1 at 0.0625 μg/ml overnight. Plates were subsequently washed and blocked for 1 hour at room temperature with 3% BSA/PBS. Periplasmic extracts were diluted 1:1 with VH2 N56Q/Vk4 S27(f)A IgG (parental RSB02 IgG) at 0.246 μg/mL in 6% BSA/PBS. The diluted periplasmic extract was then added to the blocked plate (100 μL per well) and the samples incubated on the plate for 1 hour at room temperature. Plates were subsequently washed and the binding of VH2 N56Q/Vk4 S27(f)A IgG was detected with an anti-human-HRP antibody (Sigma, Gillingham, UK) and TMB substrate (Invitrogen). The reaction was stopped with 1 M HCl, absorbance read at 450 nm on a Dynex Technologies MRX TC II plate reader and the binding data plotted.
Improved clones were identified on the basis of activity in the competition ELISA relative to the parental RSB02 scFv assayed on the same plate. Greater than 7300 peripreps were analyzed in total from all three libraries. Positive hits were picked into ‘cherry’ plates, re-tested within the competition ELISA to confirm results and sequenced. Dominant single sequence clones were identified in both the VH B1 (˜41% of clones sequenced after round 3 were a single dominant clone) and VL libraries (˜20% of clones were single dominant clones from those sequenced from round 3 and 4).

B1: VH1/Vκ4 (antibody, IgG4, V domains shown)
VH: EVQLLESGGGLVQPGGSLRLSCAASGFSFSDYYLYWVRQAPGKGLEWVATISVGGGNTSYPDSVKGRFTISRDNSKNTLYLQMNSLRAEDTAMYYCTRGLYYGPAWFAYWGQGTLVTVSS
VL: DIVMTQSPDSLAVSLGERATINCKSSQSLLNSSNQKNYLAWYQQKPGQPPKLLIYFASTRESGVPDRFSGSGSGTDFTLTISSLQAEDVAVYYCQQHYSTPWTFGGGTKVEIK
notes: IgG4 (S241P), kappa; also called VH1/VK4
relative fluorescence intensity [1]: 1.19 | relative fluorescence intensity [2]: 81.1 | average relative IC50 (normalized to chimeric antibody) (human GST-CEACAM1): 4.4 ratio | Kd [3]: 143 nM | relative KD to chimeric parental antibody [3]: 3.3 ratio

B2: He14/L1 (antibody, IgG4, V domains shown)
VH: EVQLLESGGGLVQPGGSLRLSCAASGFSFSDYYLYWVRQAPGKGLEWVATISVGGGQTSYADSVKGRFTISRDNSKNTLYLQMNSLRAEDTAMYYCTRGLYYGPSWVAYWGQGTLVTVSS
VL: DIVMTQSPDSLAVSLGERATINCKSSQSLLNSANQKNYLAWYQQKPGQPPKLLIYFASTRESGVPDRFSGSGSGTDFTLTISSLQAEDVAVYYCQSHYPFYYTFGGGTKVEIK
notes: IgG4 S241P, kappa; also called He14 / 1
binding result [4]: no binding (tested: 1.67 µg/mL) | binding result [5]: no binding (tested: 1.67 µg/mL) | Kd [6]: 69 nM | fold better than Parent (KD) [6]: 2.3 fold | Kd [7]: 67.3 nM | koff [7]: 0.00724 s⁻¹ | kon [7]: 108000 M⁻¹ s⁻¹ | relative KD to Parent [7]: 1.83 ratio

B3: Parent (scFv)
scFv: EVQLLESGGGLVQPGGSLRLSCAASGFSFSDYYLYWVRQAPGKGLEWVATISVGGGQTSYADSVKGRFTISRDNSKNTLYLQMNSLRAEDTAMYYCTRGLYYGPAWFAYWGQGTLVTVSSGGGGSGGGGSGGGGSDIVMTQSPDSLAVSLGERATINCKSSQSLLNSANQKNYLAWYQQKPGQPPKLLIYFASTRESGVPDRFSGSGSGTDFTLTISSLQAEDVAVYYCQQHYSTPWTFGGGTKVEIK
notes: also called parent humanized scFv; parental RSB02 scFv; not shown: C-terminal Flag tag from phagemid pANT65
binding result [8]: binds
